Six sequences from the supplement of paper PMC11246515 can be followed below.

This data set in a line: total protein half-life in vivo (active degradation + dilution); higher = more stable protein.
Where [1] appears, read: E. coli NCM3722 delta-clpP delta-lon delta-hslV, growth: N-lim chemostat, doubling time 6 h.
Setting [2] is: E. coli NCM3722 delta-clpP, growth: N-lim chemostat, doubling time 6 h.
[3] abbreviates: E. coli NCM3722 delta-hslV, growth: N-lim chemostat, doubling time 6 h.
Setting [4] is: E. coli NCM3722 delta-lon, growth: N-lim chemostat, doubling time 6 h.
Where [5] appears, read: E. coli NCM3722 delta-smpB, growth: N-lim chemostat, doubling time 6 h.
The mark [6] stands for this setting: wild type E. coli NCM3722, growth: C-lim chemostat, doubling time 3 h.
Where [7] appears, read: wild type E. coli NCM3722, growth: C-lim chemostat, doubling time 6 h.
[8] abbreviates: wild type E. coli NCM3722, growth: C-lim chemostat, doubling time 12 h.
The mark [9] stands for this setting: wild type E. coli NCM3722, growth: N-lim chemostat, doubling time 6 h.
Setting [10] is: wild type E. coli NCM3722, growth: N-lim chemostat, doubling time 12 h.
The mark [11] stands for this setting: wild type E. coli NCM3722, growth: P-lim chemostat, doubling time 6 h.
Setting [12] is: wild type E. coli NCM3722, growth: P-lim chemostat, doubling time 12 h.

± gives the standard deviation of the averaged measurements.

For the sequence “MSVIAQAGAKGRQLHKFGGSSLADVKCYLRVAGIMAEYSQPDDMMVVSAAGSTTNQLINWLKLSQTDRLSAHQVQQTLRRYQCDLISGLLPAEEADSLISAFVSDLERLAALLDSGINDAVYAEVVGHGEVWSARLMSAVLNQQGLPAAWLDAREFLRAERAAQPQVDEGLSYPLLQQLLVQHPGKRLVVTGFISRNNAGETVLLGRNGSDYSATQIGALAGVSRVTIWSDVAGVYSADPRKVKDACLLPLLRLDEASELARLAAPVLHARTLQPVSGSEIDLQLRCSYTPDQGSTRIERVLASGTGARIVTSHDDVCLIEFQVPASQDFKLAHKEIDQILKRAQVRPLAVGVHNDRQLLQFCYTSEVADSALKILDEAGLPGELRLRQGLALVAMVGAGVTRNPLHCHRFWQQLKGQPVEFTWQSDDGISLVAVLRTGPTESLIQGLHQSVFRAEKRIGLVLFGKGNIGSRWLELFAREQSTLSARTGFEFVLAGVVDSRRSLLSYDGLDASRALAFFNDEAVEQDEESLFLWMRAHPYDDLVVLDVTASQQLADQYLDFASHGFHVISANKLAGASDSNKYRQIHDAFEKTGRHWLYNATVGAGLPINHTVRDLIDSGDTILSISGIFSGTLSWLFLQFDGSVPFTELVDQAWQQGLTEPDPRDDLSGKDVMRKLVILAREAGYNIEPDQVRVESLVPAHCEGGSIDHFFENGDELNEQMVQRLEAAREMGLVLRYVARFDANGKARVGVEAVREDHPLASLLPCDNVFAIESRWYRDNPLVIRGPGAGRDVTAGAIQSDINRLAQLL”, the “total protein half-life in vivo” value was 3.69 ± 0.6 h under setting [1]; 2.74 ± 0.12 h under setting [2]; 2.95 ± 0.31 h under setting [3]; 3.25 ± 0.14 h under setting [4]; 3.01 ± 0.38 h under setting [5]; 3.08 ± 0.22 h under setting [6]. The “total protein half-life in vivo” value was determined as 4.89 ± 0.2 h under setting [7]; 9.3 ± 0.67 h under setting [8]; 2.79 ± 0.053 h under setting [9]; 4.57 ± 0.19 h under setting [10]; 6 ± 0.21 h under setting [11]; 11.1 ± 0.36 h under setting [12].

For the sequence “MKKVVTVCPYCASGCKINLVVDNGKIVRAEAAQGKTNQGTLCLKGYYGWDFINDTQILTPRLKTPMIRRQRGGKLEPVSWDEALNYVAERLSAIKEKYGPDAIQTTGSSRGTGNETNYVMQKFARAVIGTNNVDCCARVUHGPSVAGLHQSVGNGAMSNAINEIDNTDLVFVFGYNPADSHPIVANHVINAKRNGAKIIVCDPRKIETARIADMHIALKNGSNIALLNAMGHVIIEENLYDKAFVASRTEGFEEYRKIVEGYTPESVEDITGVSASEIRQAARMYAQAKSAAILWGMGVTQFYQGVETVRSLTSLAMLTGNLGKPHAGVNPVRGQNNVQGACDMGALPDTYPGYQYVKDPANREKFAKAWGVESLPAHTGYRISELPHRAAHGEVRAAYIMGEDPLQTDAELSAVRKAFEDLELVIVQDIFMTKTASAADVILPSTSWGEHEGVFTAADRGFQRFFKAVEPKWDLKTDWQIISEIATRMGYPMHYNNTQEIWDELRHLCPDFYGATYEKMGELGFIQWPCRDTSDADQGTSYLFKEKFDTPNGLAQFFTCDWVAPIDKLTDEYPMVLSTVREVGHYSCRSMTGNCAALAALADEPGYAQINTEDAKRLGIEDEALVWVHSRKGKIITRAQVSDRPNKGAIYMTYQWWIGACNELVTENLSPITKTPEYKYCAVRVEPIADQRAAEQYVIDEYNKLKTRLREAALA”, under setting [1], the “total protein half-life in vivo” value was 4.17 ± 0.28 h.

As for “MLPDSSVRLNKYISESGICSRREADRYIEQGNVFLNGKRATIGDQVKPGDVVKVNGQLIEPREAEDLVLIALNKPVGIVSTTEDGERDNIVDFVNHSKRVFPIGRLDKDSQGLIFLTNHGDLVNKILRAGNDHEKEYLVTVDKPITEEFIRGMSAGVPILGTVTKKCKVKKEAPFVFRITLVQGLNRQIRRMCEHFGYEVKKLERTRIMNVSLSGIPLGEWRDLTDDELIDLFKLIENSSSEVKPKAKAKPKTAGIKRPVVKMEKTAEKGGRPASNGKRFTSPGRKKKGR”, the “total protein half-life in vivo” value reads like this: under setting [1], 6.01 ± 1.2 h; under setting [2], 3.751 ± 0.021 h; under setting [3], 3.44 ± 0.14 h; under setting [4], 5.61 ± 0.41 h; under setting [5], 3.43 ± 0.087 h; under setting [6], 2.2 ± 0.11 h. The “total protein half-life in vivo” value is 4.11 ± 0.4 h under setting [7]; 5.93 ± 0.93 h under setting [8]; 3.29 ± 0.094 h under setting [9]; 5.37 ± 0.073 h under setting [10]; 2.59 ± 0.18 h under setting [11]; 5.07 ± 0.21 h under setting [12].

On to “MKKGFMLFTLLAAFSGFAQADDAAIQQTLAKMGIKSSDIQPAPVAGMKTVLTNSGVLYITDDGKHIIQGPMYDVSGTAPVNVTNKMLLKQLNALEKEMIVYKAPQEKHVITVFTDITCGYCHKLHEQMADYNALGITVRYLAFPRQGLDSDAEKEMKAIWCAKDKNKAFDDVMAGKSVAPASCDVDIADHYALGVQLGVSGTPAVVLSNGTLVPGYQPPKEMKEFLDEHQKMTSGK [P0AEG6]”, for which the “total protein half-life in vivo” value is 5.41 ± 0.26 h under setting [1]; 5.77 ± 0.5 h under setting [2]; 6.69 ± 0.64 h under setting [3]; 6.3 ± 0.28 h under setting [4]; 6.38 ± 0.49 h under setting [5]; 3.31 ± 0.52 h under setting [6]. Further, the “total protein half-life in vivo” value is 5.7 ± 0.21 h under setting [7]; 10.8 ± 1.6 h under setting [8]; 5.8 ± 0.27 h under setting [9]; 13.1 ± 2 h under setting [10]; 5.93 ± 1.2 h under setting [11]; 13.2 ± 0.74 h under setting [12].

Consider “MNSHNITNESLALALMLVVVAILISHKEKLALEKDILWSVGRAIIQLIIVGYVLKYIFSVDDASLTLLMVLFICFNAAWNAQKRSKYIAKAFISSFIAITVGAGITLAVLILSGSIEFIPMQVIPIAGMIAGNAMVAVGLCYNNLGQRVISEQQQIQEKLSLGATPKQASAILIRDSIRAALIPTVDSAKTVGLVSLPGMMSGLIFAGIDPVKAIKYQIMVTFMLLSTASLSTIIACYLTYRKFYNSRHQLVVTQLKKK”, for which the “total protein half-life in vivo” value under setting [2] amounted to 6.44 ± 0.17 h; the “total protein half-life in vivo” value under setting [3] was 6 ± 0.27 h; the “total protein half-life in vivo” value under setting [4] was determined as 5.893 ± 0.034 h; the “total protein half-life in vivo” value under setting [5] was 5.86 ± 0.42 h; the “total protein half-life in vivo” value under setting [6] came out at 3.19 ± 0.54 h; the “total protein half-life in vivo” value under setting [7] worked out at 5.5591 ± 0.0054 h. Also, the “total protein half-life in vivo” value was 9.93 ± 4.5 h under setting [8], 5.87 ± 0.81 h under setting [9], 8.27 ± 3 h under setting [10] and 6.28 ± 0.1 h under setting [11].

As for “MSKRYFVTGTDTEVGKTVASCALLQAAKAAGYRTAGYKPVASGSEKTPEGLRNSDALALQRNSSLQLDYATVNPYTFAEPTSPHIISAQEGRPIESLVMSAGLRALEQQADWVLVEGAGGWFTPLSDTFTFADWVTQEQLPVILVVGVKLGCINHAMLTAQVIQHAGLTLAGWVANDVTPPGKRHAEYMTTLTRMIPAPLLGEIPWLAENPENAATGKYINLALL”, the “total protein half-life in vivo” value under setting [1] was found to be 5.58 ± 0.28 h; the “total protein half-life in vivo” value under setting [2] came out at 5.37 ± 1.1 h; the “total protein half-life in vivo” value under setting [3] was found to be 4.33 ± 0.7 h; the “total protein half-life in vivo” value under setting [4] was 5.17 ± 0.34 h; the “total protein half-life in vivo” value under setting [5] came to 4.64 ± 0.34 h; the “total protein half-life in vivo” value under setting [6] was 3.06 ± 0.18 h. Also, the “total protein half-life in vivo” value came to 6.24 ± 0.58 h under setting [7]; 5.44 ± 0.92 h under setting [9]; 9.86 ± 1.2 h under setting [10]; 5.77 ± 0.12 h under setting [11]; 12.5 ± 0.99 h under setting [12].
